The values that follow come from patent US20090253622A1, “USE OF TLR3 AGONISTS FOR THE TREATMENT OF NEURODEGENERATIVE DISORDERS” (Nederlandse Organisatie voor toegepast - …, priority 2006, published 2009).

This test concerns human astrocytes. The experiment in a line: cDNA bank screening: COS-7 transfectant supernatants on human astrocytes, CXCL8 release. In kind it is cell-based. The note with it: COS-7 supernatant, 48 h. Here is the method: Cos-7 cells (25,000 cells per well in 96-well plates) were transfected for 5 h with 768 pools of cDNA derived from human brain tumours (5 pooled tumours including meningioma, oligodendroglioma, astrocytoma grades II and IV, and medulloblastoma; NCI CGAP Brn35; Invitrogen) using lipofectamine, after which cells were thoroughly washed. Transfection with green-fluorescent protein-encoding cDNA was used as an internal control for transfection efficiencies. After continued culture of the transfected cells for 48 h, 75 μL of each culture supernatant was harvested and added to cultured human astrocytes seeded at 1,000 cells per well in 75 μL. After 48 h of culture, supernatants were harvested and evaluated for CXCL8 release using ELISA. […]
A cDNA bank derived from 5 pooled tumours including meningioma, oligodendroglioma, astrocytoma grades II and IV and medulloblastoma was used as a source of sequences potentially encoding an endogenous protein agonist for TLR3. The cDNAs were cloned into plasmid vectors promoting expression and secretion of the cDNA-encoded product by mammalian cells, and these plasmids were transfected into COS-7 cells and evaluated in a two-step approach. […] To monitor such an astrocyte response in this first stage, secretion of CXCL8 was evaluated since this is a sensitive marker for TLR3 activation in these and other cells (cf. FIGS. 9 and 10). […]

B1: clone F5: cDNA clone product with amino acid sequence identical to residues 44-149 of human stathmin (protein)
chain: DFSLEEIQKKLEAAEERRKSHEAEVLKQLAEKREHEKEVLQKAIEENNNFSKMAEEKITHKMEANKENREAQMAAKLERLREKDKHIEEVRKNKESKDPADETEAD
For B1, the “CXCL8 secretion in astrocytes triggered by cDNA-encoded product” value is on record as “marked CXCL8 secretion”.
